From the DeepSol protein solubility set come the findings set out here.

This data set in a line: soluble on expression in E. coli; label from the status in PepcDB or PDB records.
In the case of “GPGSMKPLRIKKRESAGTPAEDEALTGLTSSASSVAAGSLAPRHVPSPPAVKGGRLPAHPGHDSGPSPAAATPAPTAKVSAAVKFSSELDNAAVEAYLEYLTHPHMSWESASRHVAHCREVIEEHRNSIYARSLAMLRRSSFASTIGSEGGDLDALETSTTSSVASAPAGFPRTAPNGSNKATGTLRKGRLGDAGSPLLPSDAAEPLAIVAHSSAAVSSSHSADSASCTSTGTGQRAPSNKGRLLRGPALAGPPRPHRTSSSATAPAAVGESVLGVGGAKLLGGSGSVFLVNGRSSAVTSRTASRDSTDRLPPVAPQGGGESLIHCKRTGGARAAVPSPQPKHRLK”, the “soluble on expression in E. coli” value was “soluble”.
Under “MNRIGFIGAGNMGTAMIRGLAQANLVKREEIIVGGRNLEKLKPLEAEFTGLQITTDTEKLVEQADIIILAVKPYTIPEILTSVKEKLTPDKIIISVAAGVTIQDLEELTSAKTKIVRVMPNTPALVGEAMSSVSPNTNVTSEELKEVTAIFTSFGEAEVVSENLMDAVIGVSGSSPAYVYMFIEALADGAVLSGMPRDKAYKFAAQAVLGAAKTVLETGEHPGKLKDMVTSPGGTTIEAVKSLENDGFRSAVINAVQAAAKKNSSMLEHHHHHH” stands “soluble”; under “CRELLPVEARQKTLLIDADLTLDEITPKFLNVLEQFAPFGFSNREPLFTATGCRLVGKPKLLRERHVKFTVRGEQSSSFEVIAFDRPDIFNDLEAHGSASALQLVCIPERNQWNGREYVQLRVMDMAIG”, “not soluble”; under “PKPLVILAHEIYGVNSHMKKMGRLIKMAGYDVLTPNLLGEDEVYTLKEEKTAYEQFTKHERLKTGETIIQPVIRQNAGRHIFVIGFSVGATIAWKCSSMPEVSGSVCYYGSRIRDSLHHMPACPVLLFFPNYEPSFDVALLIKKLREKQHTHLEIYQFDALHASP”, “not soluble”.
As for “MAHHHHHHMQSDARELNPGRADFWEHFYDQEDGRLRQKELHHRKAHEIVERGSLMNHYEWFMQYAMYEAALKACLRAVPTVLSKDGATRILHMGCGNSDFCDHVEGLLSDLHPVPSSSSRASEVLNVDICESIVAHLALHFPSRLYAVGNCCDLHVSSSPSMPFSSNAAWYSRDPALRLRKVLQSSVDVVFDKGTADALLSSFAGEYNPNMEAYMGEALKVLRPGGLLFLISINSEDVLSPYALSADDGLKSFHLAYTDVIELGAHDLRHLRVETLGSRYSCYGYAVVASAVAE”, the “soluble on expression in E. coli” value is on record as “soluble”.
On to “MSLSEYRRKRSFDKTREPEPGKTLPPGQRAIFVVQLHHASRRHYDFRLQVGDALKSWAVPKGPSYDPKVKRMAVEVEDHPVDYASFEGEIPRGEYGGGHVAQFDHGVWATAGDPEAQLAKGHLRFELFGNKLKGGWHLVRSGKPARQPQWLLFKEDDAYAGLEHHHHHH”, for which the “soluble on expression in E. coli” value is “soluble”.
For the sequence “MITTPLVHVASVEKGRSYEDFQKVYNAIALKLREDDEYDNYIGYGPVLVRLAWHISGTWDKHDNTGGSYGGTYRFKKEFNDPSNAGLQNGFKFLEPIHKEFPWISSGDLFSLGGVTAVQEMQGPKIPWRCGRVDTPEDTTPDNGRLPDADKDAGYVRTFFQRLNMNDREVVALMGAHALGKTHLKNSGYEGPWGAANNVFTNEFYLNLLNEDWKLEKNDANNEQWDSKSGYMMLPTDYSLIQDPKYLSIVKEYANDQDKFFKDFSKAFEKLLENGITFPKDAPSPFIFKTLEEQGL”, the “soluble on expression in E. coli” value was “soluble”.
Then “MGSDKIHHHHHHMSLHYSVLASGSTGNALYIESEQTRLLVDAGLTGKAMLALFDQIHRSPEKIDGLFVTHEHSDHIKGVGIMARKYNIPLYANEKTWAAMEAKIGKIDPALKFLWEVGEVKQFGDIEVESFNVSHDAADPMFFQFAHEGKRLAHITDTGYVSDRMKGVIRGADAYIFEANHDIGMLQMGHYPWSVKRRILGDYGHVSNEDAAIAMSEVLDDRTKRIHMAHLSKDNNMKELARMSVSQTLASRDVDLSKIQLLDTDPVIPTPLLKL”, with “not soluble”.
Under “MSLDKDTVYAVVDIETTGTSVTDGDRIIQIGCVFVQHNQVINHFETDVNPLKEIPAAISRLTGITNKRVRHAPLFDDVAGTLYSLLTNTVFVAHNVNFDLPFINAELERVGYPALPIAAVDTVSLSQILLPTATSFRLRDLSRLFNIEHDNPHSADSDASATAELFIFLFRRLRALPMVTLQRMIDLQADLPLQTTTLFRVAQQLNEEGHHHHHH” stands “not soluble”; under “MGSDKIHHHHHHMDSIQESDVLNAVKTKLPPCCLRIFRNKIILVGTYDLDKSTGYRSGSLDVFTMDLKLLCSNNTYGAILDLKLSPFDDTLICTAHSTGNIMLWRIRCTDKDDFQSNELDIHAIANLQLFEKDVLIASCHFSPLDCKKLLVTNTAGEAATIDIRTLSVQFTASAIAQAYSKLDKIDYEVQGATEKVIHVESGQFLKPHELECWTAEFGSLQPFQDVVFTGGDDSRIMAHDLRSKEFIWSNNRIHDAGVVSIKCSQPNFRNNKPTSIITGSYDDNIRSLDLRMMGESIFPGANVPTVNKLACDLGGGVWRFVESPIDQEQSHHNGSDRLLVCCMYNGAKVVTMNDNSDEYFQIQHYLKKGHDSMCYGGDWSNSLIATCSFYDNSLQTWIV”, “not soluble”.
Under “MGKIGIFFGTDSGNAEAIAEKISKAIGNAEVVDVAKASKEQFNSFTKVILVAPTAGAGDLQTDWEDFLGTLEASDFANKTIGLVGLGDQDTYSETFAEGIFHIYEKAKAGKVVGQTSTDGYHFEASKAVEGGKFVGLVIDEDNQDDLTDERISKWVEQVKGSFA” stands “soluble”.
For “MNQTLETGTTTVGITLKDAVIMATERRVTMENFIMHKNGKKLFQIDTYTGMTIAGLVGDAQVLVRYMKAELELYRLQRRVNMPIEAVATLLSNMLNQVKYMPYMVQLLVGGIDTAPHVFSIDAAGGSVEDIYASTGSGSPFVYGVLESQYSEKMTVDEGVDLVIRAISAAKQRDSASGGMIDVAVITRKDGYVQLPTDQIESRIRKLGLILHHHHHH”, the “soluble on expression in E. coli” value is “soluble”.
Under “MDYLSFIAVAAHEFVHTWNVKQYRPKGIVPYDYQQENYSNLLWLVEGSTSYLQYQLLLRGNLMTTDEFFTALAKRITAHAHKPGKESQSVAQASFDAWISEGGDYGNNHSVNILEHHHHHH” stands “soluble”; under “GPGSMLYRTAVPVPADALVQRNLEFTRTAWKAGLRPDQRDANQLRVVEIDFPLLSRDVVQVKCGNTVATATISCDLVEPSPYRPKHGFFEVHARQLLNERDPLDQSKEIKRISMYLTRLLSGSVLETESLCVIPGRRVWSIDAEVIIVNNDGNAQDVAQWAVMTALQHVRRPELTIRGEDVIVHPPHERDPVPLPLHHIPLSFTFAVCANPQEVQLAVRAATLRSAHAPRAGASSGANADEGDGEAEELGWSSDALQVVVDPSLEEATAAACTVSVALNGEGHVCSLEKADGCYVSIAYLEQCMEIATKLTQALLSQMKESMEAHNAKRTEAVRSQFLWAQQRHGIQAIATPGDEGEHARKSAKTEK”, “soluble”; under “MKNFEIVTVTPDHAEQLISMIHELAEFEKMKSSVVNTAEKLRKDIENKAVHGFIAFIGEEPAGMNLFYYAYSTWVGQYLHMEDLYIRPQFRRMGLARTLWKKLAELARDKGIVRLEWAVLDWNKNAIALYDTVDYVNLTKSEGWFTFRMDGAAINKFADE”, “not soluble”.
Then “MDPALAAQMSEAVAEKMLQYRRDTAGWKICREGNGVSVSWRPSVEFPGNLYRGEGIVYGTLEEVWDCVKPAVGGLRVKWDENVTGFEIIQSITDTLCVSRTSTPSAAMKLISPRDFVDLVLVKRYEDGTISSNATHVEHPLCPPKPGFVRGFNHPCGCFCEPLPGEPTKTNLVTFFHTDLSGYLPQNVVDSFFPRSMTRFYANLQKAVKQFHE”, with “soluble”.
Under “KPYPYQQDMLESLQAEREQHNRHRNLLVAATGTGKTVVAALDYRSMCDALGRRPRLLFIAHRKEILQQALRTFREVLSDGNFGELLVDGVLPKEWTHVFASIQSLNTSRMEALGKDHFEFIIIDEFHHAQAISYRKVMDYFEPQELLGLTATPERG” stands “not soluble”.
In the case of “MGSDKIHHHHHHMQIKALIYFDELVRTRSMRAAAERLNVQPTAFARQIDQLEHYFGTVLIERSSRGIQLTAAGELLAARAGKTLRELNHVHQLIDDLQGLKRGHVTIHANGATVANLLAPALADFSLVYPNIRFSVTISSAGQAMEALSSAKADMAVTLFSEPDPGIRVRARAQIVYDVIAASHHPAAHLAEMTVTELARFPLAVPDGSFGARRAFDAWFSKAGLELDPVFVTGSLEMQRELVLRGAALTLLPAQTVARERRSGELVVIPVAGGAGIRTPIDLCVAGDRQLSFAASKLVDAVERFMREQMGK”, the “soluble on expression in E. coli” value is on record as “not soluble”.
Then “MGHHHHHHSHMLDVYACHCTLCQKWSGGIAMYLEACGQPQLAPLSPEPPYFSSSSRGERYFCSGCGCPLWFRLTDTDRYFIPWTLLELNEVDRRRLILAAEIYTETQPAFWRLTGQYARLSGKEVEEMDSPCQLAH”, with “not soluble”.
Under “MKPLSWSEAFGKGAGRIQASTIRELLKLTQRPGILSFAGGLPAPELFPKEEAAEAAARILREKGEVALQYSPTEGYAPLRAFVAEWIGVRPEEVLITTGSQQALDLVGKVFLDEGSPVLLEAPSYMGAIQAFRLQGPRFLTVPAGEEGPDLDALEEVLKRERPRFLYLIPSFQNPTGGLTPLPARKRLLQMVMERGLVVVEDDAYRELYFGEARLPSLFELAREAGYPGVIYLGSFSKVLSPGLRVAFAVAHPEALQKLVQAKQGADLHTPMLNQMLVHELLKEGFSERLERVRRVYREKAQAMLHALDREVPKEVRYTRPKGGMFVWMELPKGLSAEGLFRRALEENVAFVPGGPFFANGGGENTLRLSYATLDREGIAEGVRRLGRALKGLLALV” stands “soluble”; under “MGSDKIHHHHHHMADTTPDVETDKCDDLLESLRRGRPAAGQDPVKRSQIIDGARRVFIEKGFEAASMNDITREAGVSKGTIYVYFANKEELFEALIEEERGTIFKNMYDMLDRADDLRQTLVKFGKVLSMKITSARVIQAQRTVIGASDRIPDMGARFYERGPKRGHDKVVKFLNAAIERGLLKIDDVDLAAYQFTELCLAGLFRQCIFAYRTKAPSQEEIDHIVRSGVDMFLKNYGTEQLAEEESHQMIALEAKA”, “not soluble”.
On to “SSWIPFKIGQPKKQIVSKTVERDFEREYGKLQQLEEQTKRLQKDMKKSTDADLAMSKSAVKISLDLLSNPLCEQDQDFLRMVTALDTAMKRMDAFNQEKVNQIQKTVIEPLKKFGSIFPSLNMAVKRREQALQDYGRLQAKVEKYEEKEKTGPVLAKLHQAREELRPVREDFEAKNKQLLDEMPRFYNSRLDYFQPSFESLIRAQVIYYSEMHKIFGDLTQQLDQPGHSDEHRERENETKLSELRALSIVADD”, for which the “soluble on expression in E. coli” value is given as “soluble”.
For “MNVLRSGIVTMLLLAAFSVQAACTWPAWEQFKKDYISQEGRVIDPSDARKITTSEGQSYGMFSALAANDRAAFDNILDWTQNNLAQGSLKERLPAWLWGKKENSKWEVLDSNSASDGDVWMAWSLLEAGRLWKEQRYTDIGSALLKRIAREEVVTVPGLGSMLLPGKVGFAEDNSWRFNPSYLPPTLAQYFTRFGAPWTTLRETNQRLLLETAPKGFSPDWVRYEKDKGWQLKAEKTLISSYDAIRVYMWVGMMPDSDPQKARMLNRFKPMATFTEKNGYPPEKVDVATGKAQGKGPVGFSAAMLPFLQNRDAQAVQRQRVADNFPGSDAYYNYVLTLFGQGWDQHRFRFSTKGELLPDWGQECANSH”, the “soluble on expression in E. coli” value was “soluble”.
